Results: patent publication US20230062308A1, “TREATMENT OF CK8 POSITIVE CANCERS IN RELATION WITH K-RAS GENE STATUS” (INTERNATIONAL - DRUG - DEVELOPMENT - BIOTECH, priority 2017, published 2023)

Target: T1, eCK8 (Homo sapiens, UniProt P05787)
T1 construct: methods to investigate on CK8 cellular expression at the cell surface analysed by flow cytometry; endogenous in cells
T1 sequence (P05787 1-483): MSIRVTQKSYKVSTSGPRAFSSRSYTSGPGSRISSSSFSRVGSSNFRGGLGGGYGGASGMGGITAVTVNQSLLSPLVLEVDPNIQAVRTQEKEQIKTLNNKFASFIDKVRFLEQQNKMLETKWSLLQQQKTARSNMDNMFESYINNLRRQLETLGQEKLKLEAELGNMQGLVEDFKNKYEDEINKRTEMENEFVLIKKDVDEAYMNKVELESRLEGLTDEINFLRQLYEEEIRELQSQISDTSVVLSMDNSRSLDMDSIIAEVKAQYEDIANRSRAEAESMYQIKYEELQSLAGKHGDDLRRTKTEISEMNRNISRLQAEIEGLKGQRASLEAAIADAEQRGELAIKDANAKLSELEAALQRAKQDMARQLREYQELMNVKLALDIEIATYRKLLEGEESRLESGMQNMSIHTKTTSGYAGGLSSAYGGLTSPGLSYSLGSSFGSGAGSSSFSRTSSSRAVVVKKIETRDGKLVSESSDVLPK
Assay: Antibody binding assay by flow cytometry (eCK8 expression on solid tumour cell lines)
Details: MAb 5 μg/mL, mean ± SD
Procedure: Cell lines. The established human neuroglioma cells H4, HS683, U373 or A172 (available from ATCC); the established human colorectal cells HT29; the established human pancreatic cells PANC1 or MIA-PA-CA2; the established human kidney adenocarcinoma cells A704 or ACHN and the established human lung adenocarcinoma cells A549 were grown in Dulbecco's Modified Eagle's Medium (Sigma, St Quentin Fallavier, France) supplemented with 10% heat-inactivated foetal bovine serum (FBS) (Sigma, St Quentin Fallavier, France), […] L-glutamine (Sigma, St Quentin Fallavier, France) and 100 U/mL, 100 μg/mL penicillin-streptomycin (Sigma, St Quentin Fallavier, France). The established human glioblastoma astrocytoma cells U87MG or T98G, the human head and neck cancer cells FaDu or Detroit562, the human urinary cancer cells UM-UC-3, J82, HT1197 or HT1376 and the human prostate cancer cells DU145 were grown in Eagle's Minimum Essential Medium (Sigma, St Quentin Fallavier, France) supplemented with 10% heat-inactivated fetal bovine serum (FBS) (Sigma, St Quentin Fallavier, France), […] L-glutamine (Sigma, St Quentin Fallavier, France) and 100 U/mL, 100 μg/mL penicillin-streptomycin (Sigma, St Quentin Fallavier, France). The established human breast adenocarcinoma cells MDAMB231, MCF-7 or HBL100 and the human colorectal cancer cells HCT116 were grown in Dulbecco's Modified Eagle's Medium Glutamax Low Glucose (Life Technologies, St Aubin, France) supplemented with 10% heat-inactivated fetal bovine serum (FBS) (Sigma, St Quentin Fallavier, France), […] L-glutamine (Sigma, St Quentin Fallavier, France) and 100 U/mL, 100 μg/mL penicillin-streptomycin (Sigma, St Quentin Fallavier, France).The established human colorectal cells HCT15 or SW480 and the human head and neck cancer cells TR146 were grown in Dulbecco's Modified Eagle's Medium Glutamax High Glucose (Life Technologies, St Aubin, France) supplemented with 10% heat-inactivated fetal bovine serum (FBS) (Sigma, St Quentin Fallavier, France) and 100 U/mL, 100 μg/mL penicillin-streptomycin (Sigma, St Quentin Fallavier, France). The established human head and neck cancer cells BICR16, BICR18 or BICR56 were grown in Dulbecco's Modified Eagle's Medium (Sigma, St Quentin Fallavier, France) supplemented with 10% heat-inactivated foetal bovine serum (FBS) (Sigma, St Quentin Fallavier, France), […] L-glutamine (Sigma, St Quentin Fallavier, France), 100 U/mL, 100 μg/mL penicillin-streptomycin (Sigma, St Quentin Fallavier, France) and 0.4 μg/mL hydrocortisone (Sigma, St Quentin Fallavier, France). The established human head and neck cancer cells SCC9, SCC4 or SCC15 were grown in Dulbecco's Modified Eagle's Medium/F12 (Life Technologies, St Aubin, France) supplemented with 10% heat-inactivated foetal bovine serum (FBS) (Sigma, St Quentin Fallavier, France), […] L-glutamine (Sigma, St Quentin Fallavier, France), 100 U/mL, 100 μg/mL penicillin-streptomycin (Sigma, St Quentin Fallavier, France) and 0,4 μg/mL hydrocortisone (Sigma, St Quentin Fallavier, France). The established human urinary bladder carcinoma cells 5637, the human prostate cancer cells LNCap clone FGC, the established human lung adenocarcinoma cells NCIH1703 or NCIH292, the human pancreatic cancer cells PSN1 or BxPC3 and the human kidney adenocarcinoma cells Caki1 were grown in RPMI-1640 Medium (Sigma, St Quentin Fallavier, France) supplemented with 10% heat-inactivated fetal bovine serum (FBS) (Sigma, St Quentin Fallavier, France), […] L-glutamine (Sigma, St Quentin Fallavier, France) and 100 U/mL, 100 μg/mL penicillin-streptomycin (Sigma, St Quentin Fallavier, France). […]

[1] = Detroit562 cell line (Head & Neck)
[2] = LNCaP clone FGC cell line (Prostate)
[3] = MIA-Pa-Ca-2 cell line (Pancreatic)

B1: HzR022 (D-A10): humanized anti-CK8 monoclonal antibody D-A10; VL SEQ ID NO: 14, VH SEQ ID NO: 15 (antibody, V domains shown)
VH: EVQLVESGGGLVQPGGSLRLSCAASGFTFSSYWMSWVRQAPGKGLVWVSDINSDGSSTKYADSVKGRFTISRDNAKNTLYLQMNSLRAEDTAVYYCIAHYSGGGFAYWGQGTLVTVSS
VL: DIVMTQAPLSLPVTPGEPASISCRSSKSLLYSNGYNYLYWFLQKPGQSPQLLIYYMSNLASGVPDRFSGSGSGTDFTLKISRVEAEDVGVYYCMQSLEYPFTFGQGTKLEIK
modifications: VHHzD-A10; VLHzD-A10
- % labelled cells (8-MG-BA cell line (GBM)): 72 ± 11%
- MFI (8-MG-BA cell line (GBM)): 261 ± 38
- % labelled cells (42-MG-BA cell line (GBM)): 54 ± 7%
- MFI (42-MG-BA cell line (GBM)): 247 ± 44
- % labelled cells (5637 cell line (Urinary)): 59 ± 20%
- MFI (5637 cell line (Urinary)): 284 ± 61
- % labelled cells (A172 cell line (GBM)): 35 ± 23%
- MFI (A172 cell line (GBM)): 186 ± 14
- % labelled cells (A549 cell line (Lung)): 36 ± 12%
- MFI (A549 cell line (Lung)): 193 ± 38
- % labelled cells (A704 cell line (Renal)): 37 ± 26%
- MFI (A704 cell line (Renal)): 184 ± 30
- % labelled cells (ACHN cell line (Renal)): 46 ± 20%
- MFI (ACHN cell line (Renal)): 195 ± 20
- % labelled cells (AsPC-1 cell line (Pancreatic)): 26 ± 14%
- MFI (AsPC-1 cell line (Pancreatic)): 181 ± 17
- % labelled cells (BICR16 cell line (Head & Neck)): 52 ± 2%
- MFI (BICR16 cell line (Head & Neck)): 206 ± 10
- % labelled cells (BICR18 cell line (Head & Neck)): 79 ± 9%
- MFI (BICR18 cell line (Head & Neck)): 257 ± 23
- % labelled cells (BICR56 cell line (Head & Neck)): 39 ± 34%
- MFI (BICR56 cell line (Head & Neck)): 123 ± 4
- % labelled cells (BxPC-3 cell line (Pancreatic)): 41 ± 17%
- MFI (BxPC-3 cell line (Pancreatic)): 220 ± 17
- % labelled cells (CFPAC-1 cell line (Pancreatic)): 62 ± 4%
- MFI (CFPAC-1 cell line (Pancreatic)): 279 ± 25
- % labelled cells (Caki1 cell line (Renal)): 49 ± 12%
- MFI (Caki1 cell line (Renal)): 267 ± 36
- % labelled cells (DU145 cell line (Prostate)): 19 ± 11%
- MFI (DU145 cell line (Prostate)): 185 ± 42
- % labelled cells [1]: 36 ± 0%
- MFI [1]: 203 ± 15
- % labelled cells (FaDu cell line (Head & Neck)): 56 ± 8%
- MFI (FaDu cell line (Head & Neck)): 258 ± 20
- % labelled cells (H4 cell line (GBM)): 58 ± 33%
- MFI (H4 cell line (GBM)): 199 ± 40
- % labelled cells (HBL100 cell line (Breast)): 67 ± 8%
- MFI (HBL100 cell line (Breast)): 219 ± 6
- % labelled cells (HCT116 cell line (Colon)): 64 ± 0%
- MFI (HCT116 cell line (Colon)): 283 ± 16
- % labelled cells (HS683 cell line (GBM)): 54 ± 9%
- MFI (HS683 cell line (GBM)): 225 ± 24
- % labelled cells (HT29 cell line (Colon)): 49 ± 9%
- MFI (HT29 cell line (Colon)): 203 ± 22
- % labelled cells (HT1197 cell line (Urinary)): 23 ± 7%
- MFI (HT1197 cell line (Urinary)): 240 ± 4
- % labelled cells (HT1376 cell line (Urinary)): 53 ± 3%
- MFI (HT1376 cell line (Urinary)): 497 ± 11
- % labelled cells (HuP-T3 cell line (Pancreatic)): 62 ± 17%
- MFI (HuP-T3 cell line (Pancreatic)): 260 ± 20
- % labelled cells (J82 cell line (Urinary)): 68 ± 9%
- MFI (J82 cell line (Urinary)): 319 ± 4
- % labelled cells [2]: 76 ± 9%
- MFI [2]: 412 ± 21
- % labelled cells (MCF-7 cell line (Breast)): 56 ± 33%
- MFI (MCF-7 cell line (Breast)): 250 ± 61
- % labelled cells (MDAMB231 cell line (Breast)): 49 ± 14%
- MFI (MDAMB231 cell line (Breast)): 179 ± 15
- % labelled cells [3]: 58 ± 14%
- MFI [3]: 264 ± 14
- % labelled cells (NCIH292 cell line (Lung)): 53 ± 20%
- MFI (NCIH292 cell line (Lung)): 272 ± 38
- % labelled cells (NCIH1703 cell line (Lung)): 33 ± 10%
- MFI (NCIH1703 cell line (Lung)): 188 ± 12
- % labelled cells (PANC-1 cell line (Pancreatic)): 37 ± 7%
- MFI (PANC-1 cell line (Pancreatic)): 198 ± 23
- % labelled cells (PSN-1 cell line (Pancreatic)): 15 ± 6%
- MFI (PSN-1 cell line (Pancreatic)): 193 ± 16
- % labelled cells (SCC4 cell line (Head & Neck)): 59 ± 16%
- MFI (SCC4 cell line (Head & Neck)): 222 ± 88
- % labelled cells (SCC9 cell line (Head & Neck)): 30 ± 23%
- MFI (SCC9 cell line (Head & Neck)): 193 ± 23
- % labelled cells (SCC 15 cell line (Head & Neck)): 41 ± 21%
- MFI (SCC 15 cell line (Head & Neck)): 167 ± 13
- % labelled cells (SW480 cell line (Colon)): 38 ± 3%
- MFI (SW480 cell line (Colon)): 179 ± 1
- % labelled cells (T98G cell line (GBM)): 48 ± 25%
- MFI (T98G cell line (GBM)): 211 ± 20
- % labelled cells (TCCSUP cell line (Urinary)): 62 ± 10%
- MFI (TCCSUP cell line (Urinary)): 255 ± 48
- % labelled cells (TR146 cell line (Head & Neck)): 55 ± 18%
- MFI (TR146 cell line (Head & Neck)): 140 ± 4
- % labelled cells (U87-MG cell line (GBM)): 38 ± 23%
- MFI (U87-MG cell line (GBM)): 178 ± 35
- % labelled cells (U373 cell line (GBM)): 53 ± 1%
- MFI (U373 cell line (GBM)): 161 ± 7
- % labelled cells (UM-UC-3 cell line (Urinary)): 26 ± 23%
- MFI (UM-UC-3 cell line (Urinary)): 156 ± 14
